Measurements published in patent US10919943B2, “Mutant proteins enabling agrochemical control of plant gene expression” (The Regents of the University of California, priority 2016, dated 2021).

T1: PYR1*^-MANDI (Arabidopsis thaliana, UniProt O49686, A160V/F108A/F159V/K59R/M158I/S122G/T162D/V81I/Y58H)
T1 construct: expressed in transfected cells; host or cells: S. cerevisiae strain MAV99 (selection)
T1 sequence (O49686 1-191 Y58H/K59R/V81I/F108A/S122G/M158I/F159V/A160V/T162D): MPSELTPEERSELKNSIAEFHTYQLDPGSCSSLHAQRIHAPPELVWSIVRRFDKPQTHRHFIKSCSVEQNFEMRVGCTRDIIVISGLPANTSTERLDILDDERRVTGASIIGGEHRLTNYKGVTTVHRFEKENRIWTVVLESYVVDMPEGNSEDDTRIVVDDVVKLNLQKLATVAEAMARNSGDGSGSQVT
T1 sequence (Q9CAJ0 4-511 R199A/D204A/S322D/V393R/R505A partner): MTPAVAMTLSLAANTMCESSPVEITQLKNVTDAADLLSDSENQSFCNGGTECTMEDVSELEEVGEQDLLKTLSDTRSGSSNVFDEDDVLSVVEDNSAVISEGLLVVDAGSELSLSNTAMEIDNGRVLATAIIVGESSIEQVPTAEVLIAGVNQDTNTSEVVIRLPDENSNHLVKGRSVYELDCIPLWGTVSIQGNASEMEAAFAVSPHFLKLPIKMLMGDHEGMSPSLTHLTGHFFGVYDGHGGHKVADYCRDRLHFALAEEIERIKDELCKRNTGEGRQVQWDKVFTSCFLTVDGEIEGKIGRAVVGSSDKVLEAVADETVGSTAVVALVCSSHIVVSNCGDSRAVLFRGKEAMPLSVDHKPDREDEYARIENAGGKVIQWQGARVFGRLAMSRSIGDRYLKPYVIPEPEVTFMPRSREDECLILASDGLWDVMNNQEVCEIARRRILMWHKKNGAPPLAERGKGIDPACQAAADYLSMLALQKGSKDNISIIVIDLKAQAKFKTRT


Tests used:
PYR1*^-MANDI = biological target: T1, PYR1*^-MANDI; test: Yeast two hybrid, mandipropamid-induced interaction of HAB1 variants with pBD-PYR1*^-MANDI; type: cell-based; details: FIG. 6
Text: To investigate the effects of overexpressing HAB1^!-2 in Arabidopsis, we used Agrobacterium mediated transformation to generate 35S::GFP-HAB1^!-2 transgenic plants. HAB1^!-2 was cloned from pACT-HAB1^!-2 into pEGAD, a binary vector suitable for plant transformation, generating a 35S-driven GFP-HAB1^!-2 fusion protein. The clone was transformed into Agrobacterium and the floral dip method used to transform Arabidopsis. After selection of T0 seed on soil containing glufosinate, several T1 seedlings were identified. […] As an alternate strategy, we eliminated HAB1's catalytic activity by introducing a mutation in a conserved metal-ion binding residue (D204), which is homologous to D131A mutation in ABI1, previously shown to eliminate phosphatase activity without disrupting wild type receptor-ABI1 interactions (Liang et al., 2011). We used QuickChange mutagenesis to introduce the D204A mutation into pACT-HAB1^!-2, generating pACT-HAB1^!-3. When tested for mandipropamid induced interactions with pBD-PYR1*^-MANDI, HAB1^!-3 is ˜10-fold less sensitive to mandipropamid relative to HAB1^!-2 (FIG. 5).
D204 is located within HAB1's catalytic active site and binds to one of 3 catalytic Mg^++ ions that participate in catalysis. […] It is likely that disruptions to active site structure introduced by D204A destabilize the PYR1*^-MANDI/HAB1^!-3 interaction relative to HAB1^!-2. We reasoned that suppressor mutations in other HAB1 interface or active site residues could restore sensitivity by strengthening interactions with PYR1*^-MANDI. To identify such suppressors, we mutagenized the pACT-HAB1^!-3 template using NNK mutagenesis in 28 residues located with at the PYR1 binding interface. The residues targeted were: R199, S200, E201, E203, D243, G244, H245, G246, G247, S322, E323, T324, D346, K365, K381, 1383, Q384, W385, Q386, R389, F391, G392, Y404, S431, G433, D436, D492 and N394. The pACT-HAB1^!-3 template was mutagenized in 28 separate NNK mutagenesis reactions using the QuickChange protocol. Mini-libraries, each containing ˜1000 clones, were made for each NNK reaction and plasmid DNA for the 28 mutations prepared, pooled, and then transformed into S. cerevisiae strain MAV99 co-transformed with pBD-PYR1*^-MANDI, and then plated onto selective SD(-Leu,-Trp,-Ura) agar media supplemented with 500 nM mandipropamid. […] S322D and R199A were combined using the Lightning Multi-site Mutagenesis™ (Agilent, USA) method, and the resultant pentuple mutant tested in combination with pBD-PYR1*^-MANDI for sensitivity to mandipropamid using β-galactosidase assays.

wild type HAB1 = biological target: T2, wild type HAB1 (Arabidopsis thaliana, UniProt O49686+Q9CAJ0, A160V/F108A/F159V/K59R/M158I/S122G/T162D/V81I/Y58H); test: In vitro pull down assay with recombinant 6×-His receptor and GST-PP2C; type: binding; details: 10 μM mandipropamid; FIG. 8
T2 construct: made in house; host or cells: E. coli BL21 [DE3]pLysS
T2 sequence (Q9CAJ0 23-511, one chain of several): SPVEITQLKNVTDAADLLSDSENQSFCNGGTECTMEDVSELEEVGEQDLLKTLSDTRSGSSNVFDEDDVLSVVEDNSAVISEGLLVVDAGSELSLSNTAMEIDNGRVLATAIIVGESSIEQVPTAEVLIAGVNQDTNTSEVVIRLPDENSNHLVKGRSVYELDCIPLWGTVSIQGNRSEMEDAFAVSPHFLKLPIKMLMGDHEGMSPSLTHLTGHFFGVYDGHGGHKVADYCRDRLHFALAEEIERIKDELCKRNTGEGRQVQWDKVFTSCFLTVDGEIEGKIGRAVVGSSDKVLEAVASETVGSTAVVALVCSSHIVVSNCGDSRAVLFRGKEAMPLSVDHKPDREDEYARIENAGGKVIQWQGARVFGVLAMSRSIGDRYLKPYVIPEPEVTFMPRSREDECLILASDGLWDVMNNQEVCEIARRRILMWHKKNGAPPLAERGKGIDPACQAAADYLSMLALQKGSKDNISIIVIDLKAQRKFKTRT
Text: To characterize the orthogonal orthogonal module biochemically, we produced recombinant forms of 6×-His-PYR1*^-MANDI, 6×-His-PYR1, GST-HAB1*, and GST-HAB1 in E. coli, as described above, and tested wild type and orthogonal receptors for their ability to inhibit GST-HAB1 activity in vitro, as well as their physical interactions with one another using pull-down assays. To characterize PYR1*^-MANDI and HAB1* in vitro, we cloned PYR1*^-MANDI into pET28 to generate a 6×-His tagged receptor and cloned HAB1* into pGEX-4T-1 to create a GST-fusion protein. Recombinant 6×-His-PYR1*^-MANDI and GST-HAB1* were prepared, as described above in example 1C, and used in experiments with previously prepared 6×-His-PYR1 and GST-HAB1. To conduct pull down assays, the specified recombinant receptor and PP2C (20 and 140 μg respectively), were combined in 500 μl PP2C assay buffer (100 mM Tris-HCl (pH 7.9), 100 mM NaCl, 1 mM MnCl2, 1% 13-ME and 0.3% BSA) containing either 10 μM ABA, 10 μM mandipropamid or 1% DMSO carrier solvent as a negative control. The final protein concentrations in the reactions are 1.6 μM receptor and 3.4 μM PP2C. The reactions were incubated for 90 minutes at room temperature (RT) and 20 μl of PrepEase (USB) His-tagged protein purification resin (20 mg) was added. The resin and reaction mixtures were incubated for 30 minutes at RT with gentle shaking at 5 minute intervals. The resin was washed five times and 100 μl of SDS-PAGE buffer was added and boiled for 5 minutes. After centrifugation 20 μl of supernatant was analyzed by SDS-PAGE.

Row | Molecule | mandipropamid sensitivity for binding to pBD-PYR1*^-MANDI (PYR1*^-MANDI) | binding to wild type HAB1 (wild type HAB1)
1 | HAB1*: catalytically inactive orthogonal pentuple HAB1 mutant (protein, listed as Arabidopsis thaliana) MTPAVAMTLSLAANTMCESSPVEITQLKNVTDAADLLSDSENQSFCNGGTECTMEDVSELEEVGEQDLLKTLSDTRSGSSNVFDEDDVLSVVEDNSAVISEGLLVVDAGSELSLSNTAMEIDNGRVLATAIIVGESSIEQVPTAEVLIAGVNQDTNTSEVVIRLPDENSNHLVKGRSVYELDCIPLWGTVSIQGNASEMEAAFAVSPHFLKLPIKMLMGDHEGMSPSLTHLTGHFFGVYDGHGGHKVADYCRDRLHFALAEEIERIKDELCKRNTGEGRQVQWDKVFTSCFLTVDGEIEGKIGRAVVGSSDKVLEAVADETVGSTAVVALVCSSHIVVSNCGDSRAVLFRGKEAMPLSVDHKPDREDEYARIENAGGKVIQWQGARVFGRLAMSRSIGDRYLKPYVIPEPEVTFMPRSREDECLILASDGLWDVMNNQEVCEIARRRILMWHKKNGAPPLAERGKGIDPACQAAADYLSMLALQKGSKDNISIIVIDLKAQAKFKTRT | nM sensitivity | 
2 | PYR1*^-MANDI: PYR1 mutant with 9 mutations, most sensitive to mandipropamid (protein, listed as Arabidopsis thaliana) MPSELTPEERSELKNSIAEFHTYQLDPGSCSSLHAQRIHAPPELVWSIVRRFDKPQTHRHFIKSCSVEQNFEMRVGCTRDIIVISGLPANTSTERLDILDDERRVTGASIIGGEHRLTNYKGVTTVHRFEKENRIWTVVLESYVVDMPEGNSEDDTRIVVDDVVKLNLQKLATVAEAMARNSGDGSGSQVT |  | can bind
